Legend:
Experiment in all cases: ELISA on coated antigen, background subtracted
[1] = target: large isoform of tenascin-C (UniProt P24821)
[2] = target: recombinant FN fragment 789 (human) (UniProt P02751)
[3] = target: native FN 110 kD (B-) thermolysin fragment (human) (UniProt P02751)
[4] = target: fibronectin purified from the conditioned medium of the SV40-transformed cell line WI38VA13 (human) (UniProt P02751)
[5] = target: native FN 120 kD (B+) thermolysin fragment (human) (UniProt P02751)
Chain of native FN 120 kD (B+) thermolysin fragment (human) (P02751 722-1721 limits assumed): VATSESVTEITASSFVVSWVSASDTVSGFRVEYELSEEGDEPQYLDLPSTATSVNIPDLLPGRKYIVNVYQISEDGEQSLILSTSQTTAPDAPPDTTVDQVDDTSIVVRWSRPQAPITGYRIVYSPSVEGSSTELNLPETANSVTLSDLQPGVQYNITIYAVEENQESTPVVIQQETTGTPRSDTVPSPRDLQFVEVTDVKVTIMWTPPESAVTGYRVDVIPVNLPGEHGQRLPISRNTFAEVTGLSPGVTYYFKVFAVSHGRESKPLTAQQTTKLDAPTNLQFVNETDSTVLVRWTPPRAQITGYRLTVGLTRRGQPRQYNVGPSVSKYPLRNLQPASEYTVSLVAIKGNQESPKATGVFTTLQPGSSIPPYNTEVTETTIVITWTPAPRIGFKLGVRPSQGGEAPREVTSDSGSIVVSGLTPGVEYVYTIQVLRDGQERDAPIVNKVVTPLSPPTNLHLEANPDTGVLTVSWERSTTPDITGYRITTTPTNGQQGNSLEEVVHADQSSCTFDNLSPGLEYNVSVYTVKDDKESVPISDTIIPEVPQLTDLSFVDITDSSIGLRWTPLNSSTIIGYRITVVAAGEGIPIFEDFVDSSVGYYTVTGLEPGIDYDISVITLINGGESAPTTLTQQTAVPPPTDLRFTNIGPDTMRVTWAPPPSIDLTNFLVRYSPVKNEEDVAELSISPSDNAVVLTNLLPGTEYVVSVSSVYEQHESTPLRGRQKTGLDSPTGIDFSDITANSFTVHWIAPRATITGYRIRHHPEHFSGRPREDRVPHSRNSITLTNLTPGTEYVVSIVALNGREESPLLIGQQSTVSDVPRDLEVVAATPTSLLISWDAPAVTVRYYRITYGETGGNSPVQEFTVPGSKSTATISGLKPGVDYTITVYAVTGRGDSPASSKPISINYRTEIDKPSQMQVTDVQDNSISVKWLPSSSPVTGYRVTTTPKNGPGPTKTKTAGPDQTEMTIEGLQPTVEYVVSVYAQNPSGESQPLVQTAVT

[6] = target: recombinant ED-B domain of human fibronectin with a carboxy terminal hexahistidine tag (human) (UniProt P02751)
Chain of recombinant ED-B domain of human fibronectin with a carboxy terminal hexahistidine tag (human) (P02751 other isoform, or with tags, fused parts or gaps limits assumed): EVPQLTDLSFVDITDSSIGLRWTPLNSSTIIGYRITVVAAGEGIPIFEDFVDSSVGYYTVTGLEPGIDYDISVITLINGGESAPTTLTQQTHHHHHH

[7] = target: human plasma fibronectin (human) (UniProt P02751)
[8] = target: recombinant FN fragment 7B89 (human) (UniProt P02751)
Chain of recombinant FN fragment 7B89 (human) (P02751 other isoform, or with tags, fused parts or gaps limits assumed): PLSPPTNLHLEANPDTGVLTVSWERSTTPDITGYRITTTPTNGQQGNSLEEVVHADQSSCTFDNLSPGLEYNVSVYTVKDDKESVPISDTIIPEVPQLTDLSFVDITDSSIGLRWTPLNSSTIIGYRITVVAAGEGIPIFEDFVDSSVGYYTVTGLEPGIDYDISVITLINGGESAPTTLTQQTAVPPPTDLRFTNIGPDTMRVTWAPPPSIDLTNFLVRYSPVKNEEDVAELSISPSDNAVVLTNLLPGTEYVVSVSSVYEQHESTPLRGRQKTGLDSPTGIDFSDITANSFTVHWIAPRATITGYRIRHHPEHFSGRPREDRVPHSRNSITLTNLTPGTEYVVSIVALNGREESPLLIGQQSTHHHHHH

[9] = target: recombinant FN domain 6 (human) (UniProt P02751)
Chain of recombinant FN domain 6 (human) (P02751 other isoform, or with tags, fused parts or gaps limits assumed): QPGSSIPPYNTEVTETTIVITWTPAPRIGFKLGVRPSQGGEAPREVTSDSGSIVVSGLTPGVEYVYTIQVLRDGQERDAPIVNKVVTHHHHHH

Chain of native FN 110 kD (B-) thermolysin fragment (human) (P02751 other isoform, or with tags, fused parts or gaps limits assumed): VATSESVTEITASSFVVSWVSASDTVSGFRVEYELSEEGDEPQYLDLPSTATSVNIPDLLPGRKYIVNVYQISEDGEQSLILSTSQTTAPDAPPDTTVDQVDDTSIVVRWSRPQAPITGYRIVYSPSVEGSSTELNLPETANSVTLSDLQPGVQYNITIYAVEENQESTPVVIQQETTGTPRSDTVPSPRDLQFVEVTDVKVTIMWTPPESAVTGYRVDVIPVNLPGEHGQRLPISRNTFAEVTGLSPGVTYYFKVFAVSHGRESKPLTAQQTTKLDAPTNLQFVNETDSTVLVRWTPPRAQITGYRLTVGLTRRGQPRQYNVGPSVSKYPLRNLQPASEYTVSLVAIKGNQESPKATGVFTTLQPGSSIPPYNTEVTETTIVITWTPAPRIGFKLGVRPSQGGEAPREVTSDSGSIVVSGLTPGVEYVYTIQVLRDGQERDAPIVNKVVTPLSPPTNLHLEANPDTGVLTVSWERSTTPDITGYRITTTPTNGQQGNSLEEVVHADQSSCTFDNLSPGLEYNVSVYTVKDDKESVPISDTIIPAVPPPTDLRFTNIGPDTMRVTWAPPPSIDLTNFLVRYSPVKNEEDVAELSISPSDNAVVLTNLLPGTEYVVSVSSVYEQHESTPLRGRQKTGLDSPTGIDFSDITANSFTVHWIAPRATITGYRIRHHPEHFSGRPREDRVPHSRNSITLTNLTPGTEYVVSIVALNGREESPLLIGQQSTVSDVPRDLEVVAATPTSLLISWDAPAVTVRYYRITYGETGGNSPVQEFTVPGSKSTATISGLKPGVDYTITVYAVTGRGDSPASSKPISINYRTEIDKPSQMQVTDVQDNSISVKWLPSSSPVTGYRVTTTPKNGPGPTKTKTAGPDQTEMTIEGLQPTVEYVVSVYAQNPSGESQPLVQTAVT
Chain of large isoform of tenascin-C (P24821 23-2201): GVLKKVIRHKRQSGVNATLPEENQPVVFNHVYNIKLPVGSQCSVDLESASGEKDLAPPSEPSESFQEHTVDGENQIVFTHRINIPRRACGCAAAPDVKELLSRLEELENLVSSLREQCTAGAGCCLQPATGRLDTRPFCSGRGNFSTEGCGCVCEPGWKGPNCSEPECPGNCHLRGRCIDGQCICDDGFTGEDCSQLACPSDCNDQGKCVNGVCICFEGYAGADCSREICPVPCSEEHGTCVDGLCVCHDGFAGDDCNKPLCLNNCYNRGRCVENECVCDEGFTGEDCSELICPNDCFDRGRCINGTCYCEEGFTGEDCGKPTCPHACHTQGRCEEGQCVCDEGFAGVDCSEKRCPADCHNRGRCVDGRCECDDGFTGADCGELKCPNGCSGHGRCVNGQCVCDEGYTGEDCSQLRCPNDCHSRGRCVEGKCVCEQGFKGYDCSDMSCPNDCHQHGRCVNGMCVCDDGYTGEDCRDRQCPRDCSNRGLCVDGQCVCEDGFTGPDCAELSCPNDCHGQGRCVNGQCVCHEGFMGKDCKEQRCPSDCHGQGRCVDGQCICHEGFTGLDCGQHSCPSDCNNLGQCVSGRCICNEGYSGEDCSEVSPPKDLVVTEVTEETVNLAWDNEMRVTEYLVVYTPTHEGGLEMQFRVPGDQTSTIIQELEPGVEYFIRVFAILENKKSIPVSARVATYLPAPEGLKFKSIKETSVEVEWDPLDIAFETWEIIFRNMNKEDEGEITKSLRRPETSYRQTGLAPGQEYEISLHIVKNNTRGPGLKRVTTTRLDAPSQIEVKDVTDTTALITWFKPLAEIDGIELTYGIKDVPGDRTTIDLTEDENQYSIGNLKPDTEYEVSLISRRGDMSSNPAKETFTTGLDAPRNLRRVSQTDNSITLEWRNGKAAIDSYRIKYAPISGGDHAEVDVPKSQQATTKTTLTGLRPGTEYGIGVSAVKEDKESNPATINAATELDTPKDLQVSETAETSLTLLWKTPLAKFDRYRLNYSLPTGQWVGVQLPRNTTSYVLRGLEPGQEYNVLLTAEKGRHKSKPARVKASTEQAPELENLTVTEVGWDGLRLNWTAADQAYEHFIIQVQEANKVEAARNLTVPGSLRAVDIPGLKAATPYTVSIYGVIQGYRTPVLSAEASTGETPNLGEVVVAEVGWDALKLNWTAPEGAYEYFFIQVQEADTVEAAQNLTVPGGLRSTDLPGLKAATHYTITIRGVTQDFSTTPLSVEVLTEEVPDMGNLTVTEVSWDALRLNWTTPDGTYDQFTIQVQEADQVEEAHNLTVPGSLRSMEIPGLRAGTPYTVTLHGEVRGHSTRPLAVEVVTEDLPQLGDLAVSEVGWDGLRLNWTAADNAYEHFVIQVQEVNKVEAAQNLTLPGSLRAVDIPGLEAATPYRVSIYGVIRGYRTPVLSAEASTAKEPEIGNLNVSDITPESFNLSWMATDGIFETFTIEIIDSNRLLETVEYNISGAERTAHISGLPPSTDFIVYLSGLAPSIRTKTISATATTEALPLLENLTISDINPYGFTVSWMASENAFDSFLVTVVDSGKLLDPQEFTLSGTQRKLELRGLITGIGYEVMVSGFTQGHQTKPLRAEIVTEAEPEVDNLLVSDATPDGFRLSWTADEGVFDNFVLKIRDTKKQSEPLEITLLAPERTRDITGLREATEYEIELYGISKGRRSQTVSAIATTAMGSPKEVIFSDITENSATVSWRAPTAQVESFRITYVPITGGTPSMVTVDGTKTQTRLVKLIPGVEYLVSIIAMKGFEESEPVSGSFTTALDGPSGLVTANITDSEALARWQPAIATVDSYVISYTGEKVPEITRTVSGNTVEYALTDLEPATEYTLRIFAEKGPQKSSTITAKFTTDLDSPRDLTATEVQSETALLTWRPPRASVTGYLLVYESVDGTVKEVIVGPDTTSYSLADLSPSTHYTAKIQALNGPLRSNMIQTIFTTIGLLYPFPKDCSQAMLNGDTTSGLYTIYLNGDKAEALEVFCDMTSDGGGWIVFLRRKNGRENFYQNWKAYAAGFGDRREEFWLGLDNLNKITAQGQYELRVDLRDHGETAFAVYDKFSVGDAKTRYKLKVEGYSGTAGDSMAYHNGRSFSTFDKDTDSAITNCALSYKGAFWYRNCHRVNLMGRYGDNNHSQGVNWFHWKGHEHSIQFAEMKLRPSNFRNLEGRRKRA
Chain of recombinant FN fragment 789 (human) (P02751 other isoform, or with tags, fused parts or gaps limits assumed): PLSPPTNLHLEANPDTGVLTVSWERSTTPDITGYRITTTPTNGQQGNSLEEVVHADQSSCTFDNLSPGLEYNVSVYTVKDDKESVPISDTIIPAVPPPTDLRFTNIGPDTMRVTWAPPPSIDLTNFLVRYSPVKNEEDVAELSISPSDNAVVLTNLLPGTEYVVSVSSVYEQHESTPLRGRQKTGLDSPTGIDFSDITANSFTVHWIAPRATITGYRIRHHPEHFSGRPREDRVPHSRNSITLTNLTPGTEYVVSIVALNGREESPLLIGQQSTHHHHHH

Row | Substance | OD at 405 nm [1] | OD at 405 nm [2] | OD at 405 nm [3] | OD at 405 nm [4] | OD at 405 nm [5] | OD at 405 nm [6] | OD at 405 nm [7] | OD at 405 nm [8] | OD at 405 nm [9]
1 | mAb BC-1 (antibody) | 0.06 OD 405 nm | 0.05 OD 405 nm | 0.05 OD 405 nm | 1.2 OD 405 nm | 1.2 OD 405 nm | 0.15 OD 405 nm | 0.09 OD 405 nm | 1.02 OD 405 nm | 0.08 OD 405 nm
2 | mAb IST-6 (antibody) | 0.02 OD 405 nm | 1.25 OD 405 nm | 1.2 OD 405 nm | 1.12 OD 405 nm | 0.02 OD 405 nm | 0.04 OD 405 nm | 1.73 OD 405 nm | 0.01 OD 405 nm | 0.03 OD 405 nm
